Laboratory results reported in PMC2954905, “Controlling Cellular P-TEFb Activity by the HIV-1 Transcriptional Transactivator Tat”.

Target: HEXIM1 (UniProt O94992 1-359)
Assay: EMSA; EMSA: 50 mM Tris-HCl pH 8.0, 100 mM NaCl, 14.4 mM 2-mercaptoethanol, 20 ng/ul E. coli tRNA, RT; ~2 fmol RNA; 4-5% native PAGE in 0.5x TBE, 2.5% glycerol
Details: protein: recombinant, hairpin

HEXIM1, sequence (O94992 whole entry): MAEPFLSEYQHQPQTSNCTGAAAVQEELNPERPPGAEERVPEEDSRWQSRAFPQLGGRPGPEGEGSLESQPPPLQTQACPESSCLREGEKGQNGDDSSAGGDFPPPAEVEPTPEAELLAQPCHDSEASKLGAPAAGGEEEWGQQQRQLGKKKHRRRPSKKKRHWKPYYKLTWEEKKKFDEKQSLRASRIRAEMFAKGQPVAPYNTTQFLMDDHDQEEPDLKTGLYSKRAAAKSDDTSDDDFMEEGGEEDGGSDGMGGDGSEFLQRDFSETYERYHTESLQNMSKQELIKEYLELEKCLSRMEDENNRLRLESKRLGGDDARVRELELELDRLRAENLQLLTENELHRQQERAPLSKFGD

B1: 5'HPdm+pm (in vitro) (structured_RNA)
RNA: GGAUGUGAGGGCCUAGACCGACCGACAUCUGUCACCCCAUUGAUCGCCAGGGUUGAUUCGGCUCUAGACCGACGCUAGGCGGGUGUCCCCUUCCUCCCUCACCGCUCCAUG
binding result (label: 32P internal): no binding

GGGCCACUGACCCCAUUGAUCGGAAGAUCUGGCUGGCUACAGUGGAUC (structured_RNA) [DHBS]
binding result (label: 32P, GGAA tetraloop): binds
